The values below come from patent US20250026823A1 (MERUS N V, published 2025).

Positions count from the first letter of the chain named.

Experiment [1] has as its target T1, CLEC12A expressed on cells (CLEC12A-transfected CHO cells; HL60 cells) (UniProt Q5QGZ9 1-265, limits assumed).
T1 sequence (looked up): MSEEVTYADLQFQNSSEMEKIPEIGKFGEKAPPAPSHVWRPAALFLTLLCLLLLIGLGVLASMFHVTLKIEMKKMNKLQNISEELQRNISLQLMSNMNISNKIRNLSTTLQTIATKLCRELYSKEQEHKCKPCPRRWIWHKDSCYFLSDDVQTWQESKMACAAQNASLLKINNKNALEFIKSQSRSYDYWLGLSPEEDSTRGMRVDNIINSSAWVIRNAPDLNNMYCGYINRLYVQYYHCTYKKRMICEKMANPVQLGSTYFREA
As to the kind of experiment: cell-based or functional assay.

Experiment [2] has as its target T1, CLEC12A expressed on cells …. As to the kind of experiment: flow cytometry on CLEC12A-transfected CHO cells. On the technique in general: A flow cytometer gives signals particle by particle.
Experiment [3] deals with T2, extracellular domain of CLEC12A (amino acids 75 to 275) coupled to a His-tag (Sino Biological, cat.no. … (UniProt Q5QGZ9-1 75-275)).
T2 construct: range 75-275; Bought protein; also called coated CLEC12A; isolated extracellular domain of CLEC12A; not shown: His-tag
T2 sequence (looked up): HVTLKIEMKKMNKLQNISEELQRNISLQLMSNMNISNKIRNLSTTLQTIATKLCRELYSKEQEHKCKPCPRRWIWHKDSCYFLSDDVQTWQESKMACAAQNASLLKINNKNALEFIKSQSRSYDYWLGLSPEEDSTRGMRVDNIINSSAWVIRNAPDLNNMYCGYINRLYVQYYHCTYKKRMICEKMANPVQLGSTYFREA
As to the kind of experiment: ELISA, extracellular domain of CLEC12A coated at 2 µg/ml. (In general: An ELISA detects its analyte on a solid surface through an enzyme-linked reagent.)

Experiment [4] addresses T1, CLEC12A expressed on cells …. Put plainly: flow cytometry on HL60 cells, optimized IgG concentration.

B1: CD3XCLEC12A bsAb (3056x3116) with DM-Fc (bispecific antibody, V domains shown)
VH 1: QVQLVQSGGGVVQPGRSLRLSCVASGFTFSSYGMHWVRQAPGKGLEWVAAIWYNGRKQDYADSVKGRFTISRDNSKNTLYLQMNSLRAEDTAVYYCTRGTGYNWFDPWGQGTLVTVSS
VH 2: QVQLQESGPGLVKPSETLSLTCVVSGGSISSSNWWSWVRQPPGKGLEWIGEIYHSGSPDYNPSLKSRVTISVDKSRNQFSLKLSSVTAADTAVYYCAKVSTGGFFDYWGQGTLVTVSS
VL: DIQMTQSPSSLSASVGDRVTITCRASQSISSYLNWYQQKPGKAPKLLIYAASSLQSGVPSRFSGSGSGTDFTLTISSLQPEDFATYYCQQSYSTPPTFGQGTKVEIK
In the case of B1, in experiment [1], the “lysis of HL60 cells by AML patient derived T-cells (percentage of specific lysis relative to IgG)” value was 68% and the “lysis of HL60 cells by healthy donor T cells (percentage of specific lysis relative to IgG)” value came out at 69%.

B2: CD3 monospecific antibody (3056x3056) (antibody, V domains shown)
VH: B1 VH 1
VL: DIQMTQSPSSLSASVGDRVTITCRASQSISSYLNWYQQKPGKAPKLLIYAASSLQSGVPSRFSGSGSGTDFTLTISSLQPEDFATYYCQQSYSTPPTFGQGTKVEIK
notes: Full length bivalent monoclonal IgG; also called CD3 IgG
Turning to B2, in experiment [2], the mean fluorescent intensity stood at 282.

B3: CLEC12A monospecific antibody (3116x3116) (antibody, V domains shown)
VH: B1 VH 2
VL: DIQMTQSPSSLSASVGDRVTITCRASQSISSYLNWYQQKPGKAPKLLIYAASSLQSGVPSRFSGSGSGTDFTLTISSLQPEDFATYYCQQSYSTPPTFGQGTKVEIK
notes: Bivalent IgG; also called CLEC12A benchmark antibody; CLEC12A benchmark IgG
Regarding B3, the values for the mean fluorescent intensity in experiment [2] and in experiment [4] were 4150 and 1470, respectively. Moreover, the optical density in experiment [3] amounted to 1.42.

B4: candidate 3056x3116 CD3xCLEC12A bispecific IgG1 (bispecific antibody, V domains shown)
VH 1: B1 VH 1
VH 2: B1 VH 2
VL: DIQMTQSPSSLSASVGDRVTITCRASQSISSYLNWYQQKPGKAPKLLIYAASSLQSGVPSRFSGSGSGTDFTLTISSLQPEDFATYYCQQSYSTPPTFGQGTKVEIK
notes: Full length human IgG1 with wild type Fc and a common huVk1-39 light chain; The heavy chains were heterodimerised by known methods (Gunasekaran et al; WO2009/089004); also called CD3XCLEC12A WT Fc IgG1
In turn, B4 came in with a mean fluorescent intensity in experiment [2] of 5300.

B5: 4327 CLEC12A IgG (antibody, V domains shown)
VH: QVQLVQSGAEVKKPGASVKVSCKASGYTFTSYYMHWVRQAPGQGLEWMGIINPSGGSTSYAQKFQGRVTMTRDTSTSTVYMELSSLRSEDTAVYYCAKGTTGDWFDYWGQGTLVTVSS
VL: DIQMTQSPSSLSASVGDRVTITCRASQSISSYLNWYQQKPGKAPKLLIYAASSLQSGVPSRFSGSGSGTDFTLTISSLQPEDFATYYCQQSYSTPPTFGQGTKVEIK
notes: Full length human IgG1
B5: the optical density in experiment [3] was determined as 1.31. Moreover, the mean fluorescent intensity in experiment [4] is 1560.

B6: 4331 CLEC12A IgG (antibody, V domains shown)
VH: B5 VH with Q1E, K98R, T100N, T101Y, W104E
VL: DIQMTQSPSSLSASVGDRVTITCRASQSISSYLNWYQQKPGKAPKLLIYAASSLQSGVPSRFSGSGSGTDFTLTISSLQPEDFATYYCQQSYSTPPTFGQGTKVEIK
notes: Full length human IgG1
B6 displayed an optical density in experiment [3] of 1.33. Also, the mean fluorescent intensity in experiment [4] is 1110.
